Consider six molecules from US7605133 (PANACEA PHARMACEUTICALS, dated 2009).

Ends that are not written are not given here.

In assay [1] the target is T1, NAC portion of α-synuclein (approx. amino acids 61-87) (human, UniProt P37840 61-87).
T1 construct: range 61-87; also called α-synuclein 61-87 peptide
Description: phage display selection.

Assay [2] deals with T1, NAC portion of α-synuclein (approx. …). Nature of the assay: phage display selection with the α-synuclein 121-131 and 61-87 peptides as the bait.
Assay [3] has as its target α-synuclein (recombinant, wildtype) (human, UniProt P37840 1-140). Nature of the assay: cell-based or functional assay.

Take WPFHHHR (7-mer from phage display): the binding result in assay [1] is “binds”.

B1: phage containing the SLKRLPK (SEQ ID NO: 7) peptide (peptide)
chain: SLKRLPK
modifications: also: displayed on phage coat protein
notes: also called SLKRLPK phage; not shown: phage coat protein that carries the 7-mer (New England Biolabs phage display kit); neither the protein nor any linker is
Regarding B1, in assay [2], the binding result is reported as “binds”. Take RLRGRNQ (7-mer from phage display): the binding result in assay [1] is “binds”. On the same count and under the same terms, the same measure for HLYHHKT (7-mer from phage display): “binds”. SLKRLPK (also called the peptide): the binding result in assay [1] is recorded as “binds”. The “inhibition of iron-induced α-synuclein aggregation in vitro, densitometric quantification, 10-fold excess of the peptide” value in assay [3] was determined as 38%. For THIHHPS (7-mer from phage display), the binding result in assay [1] was “binds”.
